# From patent publication US20090286242A1, “MicroRNA Expression Profiling and Uses Thereof” (COLD SPRING HARBOR LABORATORY, priority 2007, published 2009)
# B1: Wnt-1: Wnt-1 ectopically expressed from an MSCV-hygro vector (Wnt-1MSCV) (protein, UniProt P04426 28-370, looked up)
# Proto-oncogene Wnt-1: ANSSGRWWGIVNIASSTNLLTDSKSLQLVLEPSLQLLSRKQRRLIRQNPGILHSVSGGLQSAVRECKWQFRNRRWNCPTAPGPHLFGKIVNRGCRETAFIFAITSAGVTHSVARSCSEGSIESCTCDYRRRGPGGPDWHWGGCSDNIDFGRLFGREFVDSGEKGRDLRFLMNLHNNEAGRTTVFSEMRQECKCHGMSGSCTVRTCWMRLPTLRAVGDVLRDRFDGASRVLYGNRGSNRASRAELLRLEPEDPAHKPPSPHDLVYFEKSPNFCTYSGRLGTAGTAGRACNSSSPALDGCELLCCGRGHRTRTQRVTERCNCTFHWCCHVSCRNCTHTRVLHECL
# Tests used:
# miR-205 = test: Stem-loop qRT-PCR of mature miRNA in Wnt-1-expressing Comma-Dβ cells; format: cell-based, mouse; settings: data not shown
# Procedure: 1-4 μg of total RNA from sorted cells was used for small RNA cloning performed as described in Pfeffer et al, 2005 (incorporated by reference). Illumina 1G sequencing and analysis was performed as described Stark et al. 2007 (incorporated by reference). miRNA expression analyses mature miRNAs were quantified using the TaqMan MicroRNA Assays previously described by Chen et al., 2005 (Applied Biosystems, incorporated by reference).
# Data was normalized to Actin using SuperScript III SYBR Green One-Step qRT-PCR system (Invitrogen). The experiments were repeated twice and all reactions were run in triplicate.
# Comma-Dβ cells = test: ALDEFLUOR / Sca-1 FACS analysis of Comma-Dβ cell compartments; format: cell-based, mouse; settings: ectopic expression in Comma-Dβ cells
molecule,measurement,setting,value
B1,miR-205 level compared to empty vector control cells,miR-205,6 fold
same,increase in the ALDH bright Sca-1 high population,Comma-Dβ cells,3.5 fold
